Assay results: patent US12329806B2, “Compound for modulating rlr, tlr, oas and/or oncostatin m pathways, use thereof for preparing a medicine, composition, method for modulating said pathways and method of treatment” (Instituto Butantan, priority 2018, dated 2025)

Tested on: Equine melanoma tumors
Assay: RNA-Seq transcriptomic analysis (DEGs, EdgeR) of treated equine melanoma tumors excised 6 h and 12 h after injection
Format: in vivo, Equus caballus
Protocol: Equine melanoma tumors were used in experiments with the administration of the compound of the invention, for transcriptomic analysis at different points in time. This translational experiment was carried out at Sao Joaquim Farm (SP) and the samples were transported to the Instituto Butantan, in the city of Sao Paulo. The experiment was designed with non-treated control samples at 0 h (PBS) and the treated tumors were excised 6 h and 12 h after the injection of 1 mg of polypeptide per kg of tumor. For each time point, two tumors were removed from three different animals, producing six tumors per time point. All 18 cDNA libraries were prepared following Illumina's TruSeq® RNA Preparation Kit Kits v2 protocol, and then sequenced using HiSeq 1500 Illumina technology, generating 2×100 bp chain-specific paired readings. The raw sequencing readings had the contaminants removed with bowtie2 2.2.5, and then trimmomatic was used for quality control of the sequences, to cut and remove readings with regions of low complexity and enriched with homopolymers, poly-A/T/N tails, low quality adapter strings and bases, with the fastq-mcf 1.04.662 software. The readings were filtered if more than 90% of the readings correspond to regions of homopolymer or of low complexity. Subsequently, cut if the average quality score was less than 25 in a window size equal to 15. After cutting, all readings less than 40 bp were discarded.
Total RNA was isolated from cells grown with Trizol (Ambion, Life Technologies) and purified with a Mini RNAspin kit (GE Healthcare) according to the manufacturer's instructions, with prolonged treatment with DNase I for 1 h.
RNA quality was assessed with an Agilent 2100 Bioanalyzer RNA Pico assay. RNA was quantified using the Rib-Green Quant-iT and RNA reagent kit (Invitrogen, Life Technologies). The messenger RNA (mRNA) was isolated and used to prepare the complementary DNA (cDNA) libraries following the instructions of the TruSeq RNA Sample Prep Kit V2 (Illumina, San Diego, Calif.). Briefly, the mRNA was isolated with oligo-dT and purified. Then, the mRNA was fragmented by heating to 94° C. (4 min) in fragmentation buffer. The double-stranded cDNA was synthesized, repaired at the end and tail A. The sequencing adapters were then attached to the cDNA fragments, according to the manufacturer's protocol. The cDNA fragments were enriched after 15 rounds of PCR amplification. The quality control of the library was assessed by size distribution of the cDNA libraries measured using 2100 Bioanalyzer with DNA1000 assay (Agilent Technologies) and a StepOnePlus real-time PCR system from ABI were used to quantify the sample library before sequencing. The cDNA library was sequenced on the Illumina HiSeq 1500 System, in a final flow cell paired with Rapid in a 200 pair strategy of 2-101 bp pairing strategy.
The in-silico analysis of RNA-Seq comprises several quality steps and transcriptomic quantification algorithms that are understood in the present invention as “pipeline”. (FIG. 19). The quality check was performed using FastQC3. Hisat214 was used to align readings against the horse's reference genome (Equus caballus) (annotation version 89). To map and quantify transcriptions, the feature Counts was used, resulting in a table of genetic IDs versus samples with raw reading counts. Then, differentially expressed genes (DEGs) were calculated using the EdgeR package. Genes with less than one count per million (CPM) were filtered out. The DEGs were calculated by crossing the sample values of a) 6 h after treatment (6 h)×control (0 h); b) 12 h after treatment (12 h)×control; and also, c) 12 h×6 h. DEGs are defined as an absolute value of log 2 fold change between two groups (LFC)>1 and false discovery rate (FDR)<0.05. […]

[1] = in vivo administration, RNA-Seq
[2] = treated equine melanoma tumors, RNA-Seq

B1: Amblyomin-X: recombinant Kunitz type protein identified in a cDNA library of Amblyomma sculptum tick salivary glands (protein)
chain: MRQLAVLALVIFTGMCVESQSANSKAVCNLPKLAGDETCSNKTEIRWYYNGTACEAFIFKGCGGNDNNFDRVDDCQRLCEEQTHFHFESPKLICFKVQDYWILNDIMKKNLTGISLKSEEEDADSGEID
modifications: Amblyomin-X
notes: recombinant Kunitz type protein identified in a cDNA library of Amblyomma sculptum tick salivary glands
With B1 the “logFC6, gene IFIH1” value (RNA-seq, 6 h after treatment) was 0.851, the “logFC6, gene IFIT1” value (RNA-seq, 6 h after treatment) was 2.574 and the “logFC6, gene IL1B” value (RNA-seq, 6 h after treatment) was 4.309. The “logFC6, gene IL1RN” value (RNA-seq, 6 h after treatment) was 2.823, the “logFC6, gene IL13RA1” value (RNA-seq, 6 h after treatment) was 1.408 and the “logFC6, gene IRF9” value (RNA-seq, 6 h after treatment) was 1.136. For the same molecule, the “logFC6, gene ITGA1” value (RNA-seq, 6 h after treatment) was 1.348, the “logFC6, gene MYH1” value (RNA-seq, 6 h after treatment) was −8.4 and the “logFC6, gene MYH3” value (RNA-seq, 6 h after treatment) was −3.643. For the same molecule, the “logFC6, gene MYL2” value (RNA-seq, 6 h after treatment) was −8.697, the “logFC6, gene MYLPF” value (RNA-seq, 6 h after treatment) was −5.872 and the “logFC6, gene NTNG1” value (RNA-seq, 6 h after treatment) was −1.959. For the same molecule, the “logFC6, gene OAS2” value (RNA-seq, 6 h after treatment) was 1.463, the “logFC6, gene PARP9” value (RNA-seq, 6 h after treatment) was 1.816 and the “logFC6, gene PER1” value (RNA-seq, 6 h after treatment) was −1.474. For the same molecule, the “logFC6, gene PIK3R6” value (RNA-seq, 6 h after treatment) was −1.277, the “logFC6, gene RUNX1” value (RNA-seq, 6 h after treatment) was 1.723 and the “logFC6, gene SAA1” value (RNA-seq, 6 h after treatment) was 3.456. For the same molecule, the “logFC6, gene SELP” value (RNA-seq, 6 h after treatment) was 2.596, the “logFC6, gene SLPI” value (RNA-seq, 6 h after treatment) was 3.009 and the “logFC6, gene SOCS3” value (RNA-seq, 6 h after treatment) was 2.979. The “logFC6, gene STAT1” value (RNA-seq, 6 h after treatment) was 1.085, the “logFC6, gene TAT” value (RNA-seq, 6 h after treatment) was 5.292 and the “logFC6, gene TEAD4” value (RNA-seq, 6 h after treatment) was 1.685. For the same molecule, the “logFC6, gene THBS1” value (RNA-seq, 6 h after treatment) was 1.819, the “logFC6, gene TLR2” value (RNA-seq, 6 h after treatment) was 1.5586 and the “logFC6, gene TREM1” value (RNA-seq, 6 h after treatment) was 5.551. For the same molecule, the “logFC12, gene ACTN1” value (RNA-seq, 12 h after treatment) was 1.006, the “logFC12, gene BCL3” value (RNA-seq, 12 h after treatment) was 1.709 and the “logFC12, gene BIRC3” value (RNA-seq, 12 h after treatment) was 0.9146. The “logFC12, gene CAD” value (RNA-seq, 12 h after treatment) was 1.028, the “logFC12, gene CCL2” value (RNA-seq, 12 h after treatment) was 3.517 and the “logFC12, gene CDO1” value (RNA-seq, 12 h after treatment) was −2.408. The “logFC12, gene CTSL” value (RNA-seq, 12 h after treatment) was 1.385, the “logFC12, gene CXCL6” value (RNA-seq, 12 h after treatment) was 3.417 and the “logFC12, gene DDX58” value (RNA-seq, 12 h after treatment) was 1.76. The “logFC12, gene F12” value (RNA-seq, 12 h after treatment) was 3.104, the “logFC12, gene FOSL1” value (RNA-seq, 12 h after treatment) was 4.028 and the “logFC12, gene FSCN1” value (RNA-seq, 12 h after treatment) was 1.831. The “logFC12, gene HMOX1” value (RNA-seq, 12 h after treatment) was 1.117, the “logFC12, gene HSPA6” value (RNA-seq, 12 h after treatment) was 4.55 and the “logFC12, gene IFI35” value (RNA-seq, 12 h after treatment) was 1.639. For the same molecule, the “logFC12, gene IFIH1” value (RNA-seq, 12 h after treatment) was 1.823, the “logFC12, gene IFIT1” value (RNA-seq, 12 h after treatment) was 2.655 and the “logFC12, gene IL1B” value (RNA-seq, 12 h after treatment) was 3.152. For the same molecule, the “logFC12, gene IL1RN” value (RNA-seq, 12 h after treatment) was 2.805, the “logFC12, gene IL13RA1” value (RNA-seq, 12 h after treatment) was 1.28 and the “logFC12, gene IRF9” value (RNA-seq, 12 h after treatment) was 1.462. For the same molecule, the “logFC12, gene ITGA1” value (RNA-seq, 12 h after treatment) was 1.094, the “logFC12, gene MYH1” value (RNA-seq, 12 h after treatment) was −8.31 and the “logFC12, gene MYH3” value (RNA-seq, 12 h after treatment) was 3.004. For the same molecule, the “logFC12, gene MYL2” value (RNA-seq, 12 h after treatment) was −7.917, the “logFC12, gene MYLPF” value (RNA-seq, 12 h after treatment) was −5.428 and the “logFC12, gene NTNG1” value (RNA-seq, 12 h after treatment) was −2.943. For the same molecule, the “logFC12, gene OAS2” value (RNA-seq, 12 h after treatment) was 2.491, the “logFC12, gene PARP9” value (RNA-seq, 12 h after treatment) was 2.109 and the “logFC12, gene PER1” value (RNA-seq, 12 h after treatment) was −1.139. The “logFC12, gene PIK3R6” value (RNA-seq, 12 h after treatment) was −1.356, the “logFC12, gene RUNX1” value (RNA-seq, 12 h after treatment) was 1.443 and the “logFC12, gene SAA1” value (RNA-seq, 12 h after treatment) was 3.902. The “logFC12, gene SELP” value (RNA-seq, 12 h after treatment) was 2.395, the “logFC12, gene SLPI” value (RNA-seq, 12 h after treatment) was 3.051 and the “logFC12, gene SOCS3” value (RNA-seq, 12 h after treatment) was 2.423. The “logFC12, gene STAT1” value (RNA-seq, 12 h after treatment) was 1.267, the “logFC12, gene TAT” value (RNA-seq, 12 h after treatment) was 5.521 and the “logFC12, gene TEAD4” value (RNA-seq, 12 h after treatment) was 1.949. For the same molecule, the “logFC12, gene THBS1” value (RNA-seq, 12 h after treatment) was 0.8749, the “logFC12, gene TLR2” value (RNA-seq, 12 h after treatment) was 1.839 and the “logFC12, gene TREM1” value (RNA-seq, 12 h after treatment) was 5.559. For the same molecule, the “LFC SELE (6 h×0 h)” value (e-selectin (SELE) gene, log2 fold change, 6 h after treatment vs control 0 h, RNA-Seq) was 2.33, the “LFC SELE (12 h×0 h)” value (e-selectin (SELE) gene, log2 fold change, 12 h after treatment vs control 0 h, RNA-Seq) was 1.78 and the “logFC6 BATF3” value (gene BATF3, RNA-seq, 6 hours after treatment) was 3.137. For the same molecule, the “logFC12 BATF3” value (gene BATF3, RNA-seq, 12 hours after treatment) was 2.91, the “logFC6 CAV3” value (gene CAV3, RNA-seq, 6 hours after treatment) was −3.0363 and the “logFC12 CAV3” value (gene CAV3, RNA-seq, 12 hours after treatment) was −6.6813. For the same molecule, the “logFC6 CCR7” value (gene CCR7, RNA-seq, 6 hours after treatment) was 2.652, the “logFC12 CCR7” value (gene CCR7, RNA-seq, 12 hours after treatment) was 2.359 and the “logFC6 CDH15” value (gene CDH15, RNA-seq, 6 hours after treatment) was −2.616. The “logFC12 CDH15” value (gene CDH15, RNA-seq, 12 hours after treatment) was −1.702, the “logFC6 EIF2AK2” value (gene EIF2AK2, RNA-seq, 6 hours after treatment) was 2.4 and the “logFC12 EIF2AK2” value (gene EIF2AK2, RNA-seq, 12 hours after treatment) was 2.959. The “logFC6 ETV6” value (gene ETV6, RNA-seq, 6 hours after treatment) was 1.795, the “logFC12 ETV6” value (gene ETV6, RNA-seq, 12 hours after treatment) was 1.871 and the “logFC6 IL7R” value (gene IL7R, RNA-seq, 6 hours after treatment) was 2.532. The “logFC12 IL7R” value (gene IL7R, RNA-seq, 12 hours after treatment) was 2.227, the “logFC6 IL18RAP” value (gene IL18RAP, RNA-seq, 6 hours after treatment) was 2.817 and the “logFC12 IL18RAP” value (gene IL18RAP, RNA-seq, 12 hours after treatment) was 2.593. For the same molecule, the “logFC6 MYLK2” value (gene MYLK2, RNA-seq, 6 hours after treatment) was −5.152, the “logFC12 MYLK2” value (gene MYLK2, RNA-seq, 12 hours after treatment) was −5.672 and the “logFC6 NECTIN3” value (gene NECTIN3, RNA-seq, 6 hours after treatment) was 1.287. The “logFC12 NECTIN3” value (gene NECTIN3, RNA-seq, 12 hours after treatment) was 1.113, the “logFC6 NLRC4” value (gene NLRC4, RNA-seq, 6 hours after treatment) was 5.503 and the “logFC12 NLRC4” value (gene NLRC4, RNA-seq, 12 hours after treatment) was 5.687. For the same molecule, the “logFC6 NLRP12” value (gene NLRP12, RNA-seq, 6 hours after treatment) was 3.4, the “logFC12 NLRP12” value (gene NLRP12, RNA-seq, 12 hours after treatment) was 2.297 and the “logFC6 OAS3” value (gene OAS3, RNA-seq, 6 hours after treatment) was 1.716. The “logFC12 OAS3” value (gene OAS3, RNA-seq, 12 hours after treatment) was 2.112, the “logFC6 PRKCQ” value (gene PRKCQ, RNA-seq, 6 hours after treatment) was −1.531 and the “logFC12 PRKCQ” value (gene PRKCQ, RNA-seq, 12 hours after treatment) was −3.021. For the same molecule, the “DEG modulation of ACTA1 and ACTN2” value [1] was “high negative regulation”, the “DEG modulation of ACTN1 and ACTR3” value [1] was “positive regulation” and the “DEG modulation of TUBB and TUBB6 (Tubulin family)” value [1] was “positive regulation”. For the same molecule, the “expression of Interferons (type 1 interferon, IFN alpha and IFN beta)” value [2] was “does not lead to the detectable expression” and the “expression of the NOXA gene (PMAIP1)” value [2] was “did not induce the detectable expression”.
